Tested on: T1, C=C(OP(=O)(O)O)C(=O)O
T1 construct: full length, 622 residues, N-terminal His6-SUMO tag cleaved off with no additional amino acids; codon-optimised gene in pESUMO-Star; E. coli BL21(DE3); EC 4.1.1.32
Assay: purified protein
Format: biochemical, Polaromonas naphthalenivorans
Conditions: 25 °C, pH 7.5, 1 mM GDP, 50 mM KHCO3, 4 mM MgCl2, 100 μM MnCl2, PEP carboxylation direction

PnPEPCK (Polaromonas naphthalenivorans CJ2)
Km: 2500 ± 650 µM
kcat: 23 ± 1.4 s⁻¹
kcat/Km: 9200 M⁻¹ s⁻¹
